For series [1], the target named is T1, StsR (GntR family regulator) (Streptococcus mutans UA159) (UniProt Q8DTX4).
T1 sequence: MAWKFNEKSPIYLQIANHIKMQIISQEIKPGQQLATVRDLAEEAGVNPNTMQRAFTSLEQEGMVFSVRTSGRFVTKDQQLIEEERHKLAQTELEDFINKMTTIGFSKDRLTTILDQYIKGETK
In words: EMSA. The following applies: 50 mM Tris/HCl, 10 mM NaCl, 0.5 M Mg acetate (so in the source), 0.1 mM EDTA, 5% glycerol, 30 min, 10 uL; 4% native PAGE in 0.5x TBS; pH and binding temperature not ….

Series [2] concerns the target T1, StsR (GntR family regulator) (Streptococcus mutans UA159). In words: DNase I footprinting. The following applies: 50 mM Tris/HCl, 10 mM NaCl, 0.5 M Mg acetate (so in the source), 0.1 mM EDTA, 5% glycerol, 30 min, 10 uL; 4% native PAGE in 0.5x TBS; pH and binding temperature not ….
Series [3] addresses StsR (GntR family regulator) (Streptococcus mutans UA159, UniProt Q8DTX4 1-123). In words: EMSA; 10-40 pmol StsR; 50 mM Tris/HCl, 10 mM NaCl, 0.5 M Mg acetate (so in the source), 0.1 mM EDTA, 5% glycerol, 30 min, 10 uL; 4% native PAGE in 0.5x TBS; pH and binding temperature not stated (DNase I digestion at 28 C). The note with it: protein: recombinant; tags: His6 (pET28a); chain copies: 2; label: FITC; annealed with reverse complement. (In general: Mobility shift assays separate free from complexed probe on a gel.)

Turning to “CTTATAAAGTAATTTAATATCTTGATGAAATTTTAAAAAAACTTGACATTTTTCGCAAACGATTGCATAATATTATTGTAACAAAAATTACAAAGAAATTTCAGGAGGAAATCGCT (double strand) [maltose ABC transporter promoter]”, the binding entry in series [1] is reported as “binds”.

As for “AAGTGTCTCCTTCTACTTTTTAATAAAATAGTATTGTTTACTCAAATAATCACCTTGCGGCATATCAATGGTCAATCCCGCATACATTAACTCCGCA (double strand) [multiple sugar-binding ABC transporter promoter]”, in series [1], the binding entry was “binds”.

“CTTCTGTCTCCTTAAGATCTACTTACTTTTATTATACTACAAATCCTTAAAATCCTCTTACTCTTTCATTTAATTCTACTAAATCTCATCAGTCTAAATTTACCACTTGACAATATTTTACTATAATTGTATTATATATATAACACAATTATACACTGCACTTTAGAAAGGAGAAAAAATGGCT (double strand) [stsR p2]”: in series [1], the binding entry is on record as “binds”.

Consider “CAAATTTTGGCAAAACTTTTGTGCCAAAATTTGAGTTTTATTAGAAAATGAAAAATGTTACAGTAGTTTTAGAATAAAAAGGAGGGGATTTCTGATGGAACGAAAATCTTCATTGAAGGTTCGGGTACA (double strand) [mannitol-specific PTS promoter]”, for which the binding entry in series [1] was “binds”.

Turning to “CAGGGATATGAAAATGACAAATGACACTGCAAAAGCGTTTTCAAAAAATGTAAAATAAAAATGAAATAAAAAAGAAAGTAGGGTGTATTC (double strand) [mannose-specific PTS promoter]”, the binding entry in series [1] is “binds”.

As for “CTTCTGTCTCCTTAAGATCTACTTACTTTTATTATACTACAAATCCTTAAAATCCTCTTACTCTTTCATTTAATTCTACTAAATCTCATCAGTCTAAATTTACCACTTGACAATATTTTACTATAATTGTATTATATATATAACACAATTATACACTGCACTTTAGAAAGGAGAAAAAATGGCT (double strand) [stsR p2 FITC]”, the binding result in series [2] is reported as “binds”.

B1: stsR p3mut (dsDNA)
DNA 1: CCACTTGACAATATTTTACTCCACCTGTCCTCCATATATAACAC
DNA 2: GTGTTATATATGGAGGACAGGTGGAGTAAAATATTGTCAAGTGG
As to B1, the binding result in series [3] was “no binding”.

B2: stsR p3 (dsDNA)
DNA 1: CCACTTGACAATATTTTACTATAATTGTATTATATATATAACAC
DNA 2: GTGTTATATATATAATACAATTATAGTAAAATATTGTCAAGTGG
With B2, the binding result in series [3] is recorded as “binds”.
